Data reported in patent US20060052286A1, “Factor VII conjugates for selectively treating neovascularization disorders” (Yale University, priority 2004, published 2006).

What was measured:
[1] = system: choroidal neovascularization (CNV) lesions; assay: Targeted photodynamic therapy of laser-induced CNV lesions in rats (fluorescein angiography); type: in vivo, Norway-Brown rats
Description: CNV lesions were induced by laser photocoagulation of the retina in both eyes of Norway-Brown rats. Group 1: one eye received an intravitreal injection of 10 ul verteporfin conjugated to targeting molecule, and the other eye was used as a control. One hour later some of the lesions were treated with 690 nm laser light, while the other lesions were not irradiated. Group 2: one eye received iv. injection of 0.5 to 1 mg/m^2 verteporfin conjugated with targeting molecule. 15, 30 or 60 minutes later some of the lesions were treated with 690 nm laser light, while the other lesions were not irradiated. The lesions were examined by fluorescein angiography 1, 7 and 14 days later to assess the efficacy of targeted photodynamic therapy. In the case of intravitreal treatment with the same dosage, the effects of targeted photodynamic therapy lasted at least seven days. While there is no effect of PDT in the case of intravitreal injection of free verteporfin, the effects of targeted photodynamic therapy last even longer than 14 days, and the dosage of verteporfin in targeted photodynamic therapy is only 16% as compared to regular PDT verteporfin.
CNV lesions were induced by laser photocoagulation of the retina in both eyes of Norway-Brown rats. Choroidal neovascularization was induced by photocoagulating the posterior pole of rats with argon green laser using a slit lamp and a fundus contact lens to deliver 200-700 mW power for 0.1 second to a 50 μm spot. The power was adjusted to produce a blister or small hemorrhage. If no bleeding was observed, an additional laser-induced lesion was produced next to the first spot. Neovascular membranes usually develop within 2 weeks.
After 4 weeks, FVII-verteporfin conjugate (fVIIPD) at doses of 0.5 or 1 mg/m^2 was injected intravenously into the tail vein of the rats. Some of the CNV lesions were irradiated with 689 nm laser for 83 seconds at 15, 30 or 60 minutes after intravenous injection, while the other lesions were not irradiated (no light controls). Control rats were intravenously injected with Verteporfin (6.0 mg/m2) and laser irradiation was done 15 minutes later. The lesions were examined by fundus photographs and fluorescein angiography 1, 7 and 14 days later to assess the efficacy of ITPT. Choroidal veovascular membranes were treated by intravitreal injection of Verteporfin attached to targeting molecules that bind selectively to the endothelial cells of pathologic vessels. The photosensitizer was activated with an opal laser. A similar experiment was performed by intravitreal injection of fVII-targeted verteporfin.

[2] = biological target: T1, Tissue Factor on the tumor cells (human breast cancer cells) (Homo sapiens, UniProt P13726); assay: Binding to human breast cancer cells expressing TF by flow cytometry; details: conjugated compared with non-conjugated molecule
T1 construct: Human Tumor Cells Expressing TF; endogenous in cells
T1 sequence (P13726 33-295): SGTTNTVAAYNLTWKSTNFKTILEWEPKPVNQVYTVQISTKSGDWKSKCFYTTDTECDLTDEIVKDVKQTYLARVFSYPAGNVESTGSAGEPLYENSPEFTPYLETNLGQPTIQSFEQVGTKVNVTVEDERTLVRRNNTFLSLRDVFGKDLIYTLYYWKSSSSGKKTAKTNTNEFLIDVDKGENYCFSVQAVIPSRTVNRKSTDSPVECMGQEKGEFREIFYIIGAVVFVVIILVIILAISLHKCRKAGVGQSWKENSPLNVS
Description: mfVIIP was conjugated to verteporfin using the procedure described above. The binding activity of the conjugate to human breast cancer cells was tested by flow cytometry

Row | Molecule | effect of PDT ([1]; intravitreal injection, same dosage) | blood vessel leakage ([1]; intravitreal injection followed by laser activation, at 7 days) | duration of effects of targeted photodynamic therapy ([1]; intravitreal treatment, 690 nm laser light) | duration of effects of targeted photodynamic therapy ([1]; route not stated in the sentence (apparently iv 0.5 to 1 mg/m^2), verteporfin dosage only 16% of regular PDT) [days] | binding activity to human breast cancer cells [2]
1 | verteporfin [reference compound] | no effect |  |  |  | 
2 | mfVIIPD: verteporfin conjugated via EDC to mfVIIP protein (mouse factor VII with K341A mutation) (conjugate, UniProt P70375 1-446, looked up, variant K341A, verteporfin conjugate; S-peptide and His6 tags) MVPQAHGLLLLCFLLQLQGPLGTAVFITQEEAHGVLHRQRRANSLLEELWPGSLERECNEEQCSFEEAREIFKSPERTKQFWIVYSDGDQCASNPCQNGGTCQDHLKSYVCFCLLDFEGRNCEKSKNEQLICANENGDCDQYCRDHVGTKRTCSCHEDYTLQPDEVSCKPKVEYPCGRIPVVEKRNSSSRQGRIVGGNVCPKGECPWQAVLKINGLLLCGAVLLDARWIVTAAHCFDNIRYWGNITVVMGEHDFSEKDGDEQVRRVTQVIMPDKYIRGKINHDIALLRLHRPVTFTDYVVPLCLPEKSFSENTLARIRFSRVSGWGQLLDRGATALELMSIEVPRLMTQDCLEHAKHSSNTPKITENMFCAGYMDGTKDACAGDSGGPHATHYHGTWYLTGVVSWGEGCAAIGHIGVYTRVSQYIDWLVRHMDSKLQVGVFRLPLL |  | completely stopped blood vessel leakage | at least seven | > 14 | identical
3 | mfVIIP: mouse factor VII with K341A mutation, ribonuclease S-peptide and 6 Histidines, produced in CHO cells (protein, UniProt P70375 1-446, looked up, variant K341A, S-peptide and His6 tags, mouse factor VII with K341A mutation, ribonuclease S-peptide and 6 Histidines, produced in CHO cells) MVPQAHGLLLLCFLLQLQGPLGTAVFITQEEAHGVLHRQRRANSLLEELWPGSLERECNEEQCSFEEAREIFKSPERTKQFWIVYSDGDQCASNPCQNGGTCQDHLKSYVCFCLLDFEGRNCEKSKNEQLICANENGDCDQYCRDHVGTKRTCSCHEDYTLQPDEVSCKPKVEYPCGRIPVVEKRNSSSRQGRIVGGNVCPKGECPWQAVLKINGLLLCGAVLLDARWIVTAAHCFDNIRYWGNITVVMGEHDFSEKDGDEQVRRVTQVIMPDKYIRGKINHDIALLRLHRPVTFTDYVVPLCLPEKSFSENTLARIRFSRVSGWGQLLDRGATALELMSIEVPRLMTQDCLEHAKHSSNTPKITENMFCAGYMDGTKDACAGDSGGPHATHYHGTWYLTGVVSWGEGCAAIGHIGVYTRVSQYIDWLVRHMDSKLQVGVFRLPLL |  |  |  |  | identical
